# Where a chain is given by its changes, count along the chain named.
# B1: 1C4-H2K2-IgG4 (antibody, V domains shown)
# VH: QVQMVQSGAEVKKPGASVKLSCKASGFTFSSSYINWLRQAPGQSLEWIGWIFAGTGGTYYNQKFTGRVQITRDTSASTAYMELSSLRSEDTAIYYCARHSPRATLFDFWGQGTTLTVSS
# VL: EIVLTQSPATLSLSPGERATLSCRASSSVNHMHWYQQKPGQAPRALIYATSNLASGIPARFSGSGSGTSFTLTISSLEPEDFATYYCQQWSSNPYTFGGGTKLEIK
# notes: humanized
# B2: 1C4-H4K3-IgG4 (antibody, V domains shown)
# VH: B1 VH with V2G, A24T, G49A, V68A, I70L, R72V
# VL: B1 VL with L21M, Q41F, A42S, L46W
# notes: humanized
# B3: 1C4-H4K1-IgG4 (antibody, V domains shown)
# VH: B1 VH with V2G, A24T, G49A, V68A, I70L, R72V
# VL: B1 VL with T84V
# notes: humanized
# B4: 1C4-H3K4-IgG4 (antibody, V domains shown)
# VH: B1 VH with V68A
# VL: B1 VL with L13A, A19V, L21M, K38R, Q41F, A42S, L46W, F70Y, T71S
# notes: humanized
# B5: 1C4-H4K2-IgG4 (antibody, V domains shown)
# VH: B1 VH with V2G, A24T, G49A, V68A, I70L, R72V
# VL: B1 VL
# notes: humanized
# B6: 1C4-H2K4-IgG4 (antibody, V domains shown)
# VH: B1 VH
# VL: B1 VL with L13A, A19V, L21M, K38R, Q41F, A42S, L46W, F70Y, T71S
# notes: humanized
# B7: 1C4-H3K2-IgG4 (antibody, V domains shown)
# VH: B1 VH with V68A
# VL: B1 VL
# notes: humanized
# B8: 1C4-H3K3-IgG4 (antibody, V domains shown)
# VH: B1 VH with V68A
# VL: B1 VL with L21M, Q41F, A42S, L46W
# notes: humanized
# B9: 1C4-H4K4-IgG4 (antibody, V domains shown)
# VH: B1 VH with V2G, A24T, G49A, V68A, I70L, R72V
# VL: B1 VL with L13A, A19V, L21M, K38R, Q41F, A42S, L46W, F70Y, T71S
# notes: humanized
# B10: 5F9-H2K2-IgG4 (antibody, V domains shown)
# VH: QVQLKESGPGLVKPSETLSLTCTVSGFSLTTYDISWVRQPPGKGLEWLGVIWTGGGTNYNSSFMSRVTISKDTSKNQVSLKLSSVTAADTAIYYCERVDYWGQGTTVTVSS
# VL: DVVMTQSPLSLPVTLGQPASISCRSSQSLVHSNGNTYLHWFQQRPGQSPKLLIYKVSNRFSGVPDRFSGSGSGTAFTFKISRVEAEDVGVYYCSQNTHVPWTFGGGTKVEIK
# notes: humanized
# B11: 5F9-H3K1-IgG4 (antibody, V domains shown)
# VH: B10 VH with L20I, T73N, V107L
# VL: B10 VL with K50R
# notes: humanized
# B12: 5F9-H1K4-IgG4 (antibody, V domains shown)
# VH: B10 VH with K5Q, L48I, I92V
# VL: B10 VL with Q17D, F41Y, Q42L, V109L
# notes: humanized
# B13: 5F9-H1K2-IgG4 (antibody, V domains shown)
# VH: B10 VH with K5Q, L48I, I92V
# VL: B10 VL
# notes: humanized; also called 30-5F9-H1K2-IgG4
# B14: 5F9-H3K3-IgG4 (antibody, V domains shown)
# VH: B10 VH with L20I, T73N, V107L
# VL: B10 VL with F41Y, V109L
# notes: humanized
# B15: 5F9-H2K3-IgG4 (antibody, V domains shown)
# VH: B10 VH
# VL: B10 VL with F41Y, V109L
# notes: humanized
# B16: 5F9-H3K4-IgG4 (antibody, V domains shown)
# VH: B10 VH with L20I, T73N, V107L
# VL: B10 VL with Q17D, F41Y, Q42L, V109L
# notes: humanized
# B17: 5F9-H2K1-IgG4 (antibody, V domains shown)
# VH: B10 VH
# VL: B10 VL with K50R
# notes: humanized
# B18: 5F9-H1K3-IgG4 (antibody, V domains shown)
# VH: B10 VH with K5Q, L48I, I92V
# VL: B10 VL with F41Y, V109L
# notes: humanized
# B19: 5F9-H1K1-IgG4 (antibody, V domains shown)
# VH: B10 VH with K5Q, L48I, I92V
# VL: B10 VL with K50R
# notes: humanized
# B20: 5F9-H3K2-IgG4 (antibody, V domains shown)
# VH: B10 VH with L20I, T73N, V107L
# VL: B10 VL
# notes: humanized
# B21: 5F9-H2K4-IgG4 (antibody, V domains shown)
# VH: B10 VH
# VL: B10 VL with Q17D, F41Y, Q42L, V109L
# notes: humanized
# B22: 6A5-H2K2-IgG2 (antibody, V domains shown)
# VH: QVQLVQSGAEVKKPGSSVKLSCKASGYTFSSYWINWVRQAPGQGLEWIGNIYPSDSYTNYNQKFKDRATLTVDKSTSTAYMELSSLRSEDTAVYYCTRTWEFYYDSVFDYWGQGTLVTVSS
# VL: DIQMTQSPSSLSASLGERVTITCKASQDINSYLSWYQQKPGKAPKTLIYRANRLVDGVPSRFSGSGSGQDFTLTISSLQPEDIATYYCLQYDELPPTFGGGTKVEIK
# notes: humanized
# B23: 6A5-H3K3-IgG2 (antibody, V domains shown)
# VH: B22 VH with R38K, R67K, L116T, V117L
# VL: B22 VL with Y36F
# notes: humanized
# B24: 6A5-H1K4-IgG2 (antibody, V domains shown)
# VH: B22 VH with I48M, A68V
# VL: B22 VL with Y36F, F71Y, V104L
# notes: humanized
# B25: 6A5-H2K3-IgG2 (antibody, V domains shown)
# VH: B22 VH
# VL: B22 VL with Y36F
# notes: humanized
# B26: 6A5-H3K2-IgG2 (antibody, V domains shown)
# VH: B22 VH with R38K, R67K, L116T, V117L
# VL: B22 VL
# notes: humanized
# B27: 6A5-H3K4-IgG2 (antibody, V domains shown)
# VH: B22 VH with R38K, R67K, L116T, V117L
# VL: B22 VL with Y36F, F71Y, V104L
# notes: humanized
# B28: 6A5-H2K4-IgG2 (antibody, V domains shown)
# VH: B22 VH
# VL: B22 VL with Y36F, F71Y, V104L
# notes: humanized
# B29: 6A5-H3K1-IgG2 (antibody, V domains shown)
# VH: B22 VH with R38K, R67K, L116T, V117L
# VL: B22 VL with T46L
# notes: humanized
# B30: 6A5-H1K1-IgG2 (antibody, V domains shown)
# VH: B22 VH with I48M, A68V
# VL: B22 VL with T46L
# notes: humanized
# B31: 6A5-H1K2-IgG2 (antibody, V domains shown)
# VH: B22 VH with I48M, A68V
# VL: B22 VL
# notes: humanized
# B32: 6A5-H1K3-IgG2 (antibody, V domains shown)
# VH: B22 VH with I48M, A68V
# VL: B22 VL with Y36F
# notes: humanized
# B33: 6A5-H2K1-IgG2 (antibody, V domains shown)
# VH: B22 VH
# VL: B22 VL with T46L
# notes: humanized
# Target: T1, Histidine-tagged human 4-1BB protein (h4-1BB-His) (human, UniProt Q07011 24-186)
# T1 construct: not shown: histidine tag
# Test: SPR (Biacore T200), antibody on Protein A chip, h4-1BB-His injected;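 note: dissociation phase followed for 300 s, Kd derived as koff divided by kon from the kinetic fit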
# Protocol: The binding affinity of the anti-h4-1BB antibodies were measured using surface plasmon resonance (SPR) using Biacore (Biacore, INC, Piscataway N.J.) T200 biosensor equipped with pre-immobilized Protein A sensor chips.
# Dissociation was monitored for 300 seconds. The chip was regenerated after the last injection of each titration with Glycine (pH 2.0, 30 μL/min for 5 seconds).
# Affinities were calculated from the quotient of the kinetic rate constants (KD=koff/kon).
Kd,koff,kon,Binder
25.1 nM,0.000646 s⁻¹,25800 M⁻¹ s⁻¹,B1
16.9 nM,0.000556 s⁻¹,32900 M⁻¹ s⁻¹,B2
18.2 nM,0.000516 s⁻¹,28400 M⁻¹ s⁻¹,B3
15.9 nM,0.000476 s⁻¹,30000 M⁻¹ s⁻¹,B4
16.6 nM,0.00049 s⁻¹,29600 M⁻¹ s⁻¹,B5
20.7 nM,0.000521 s⁻¹,25200 M⁻¹ s⁻¹,B6
16.3 nM,0.000453 s⁻¹,27700 M⁻¹ s⁻¹,B7
17.1 nM,0.000533 s⁻¹,31200 M⁻¹ s⁻¹,B8
19.3 nM,0.00056 s⁻¹,29000 M⁻¹ s⁻¹,B9
13.4 nM,0.00261 s⁻¹,194000 M⁻¹ s⁻¹,B10
12.2 nM,0.00242 s⁻¹,198000 M⁻¹ s⁻¹,B11
9.95 nM,0.00244 s⁻¹,246000 M⁻¹ s⁻¹,B12
12 nM,0.00247 s⁻¹,205000 M⁻¹ s⁻¹,B13
10.5 nM,0.0022 s⁻¹,210000 M⁻¹ s⁻¹,B14
9.81 nM,0.00207 s⁻¹,212000 M⁻¹ s⁻¹,B15
11.4 nM,0.0027 s⁻¹,236000 M⁻¹ s⁻¹,B16
11.2 nM,0.00225 s⁻¹,202000 M⁻¹ s⁻¹,B17

Kd,koff,kon,Binder
10.1 nM,0.00208 s⁻¹,206000 M⁻¹ s⁻¹,B18
11.4 nM,0.00253 s⁻¹,222000 M⁻¹ s⁻¹,B19
13.7 nM,0.00258 s⁻¹,188000 M⁻¹ s⁻¹,B20
12.4 nM,0.00269 s⁻¹,216000 M⁻¹ s⁻¹,B21
0.28 nM,0.000652 s⁻¹,2.33e+06 M⁻¹ s⁻¹,B22
0.252 nM,0.000538 s⁻¹,2.14e+06 M⁻¹ s⁻¹,B23
0.321 nM,0.000693 s⁻¹,2.16e+06 M⁻¹ s⁻¹,B24
0.221 nM,0.000504 s⁻¹,2.28e+06 M⁻¹ s⁻¹,B25
0.402 nM,0.000825 s⁻¹,2.05e+06 M⁻¹ s⁻¹,B26
0.4 nM,0.000747 s⁻¹,1.87e+06 M⁻¹ s⁻¹,B27
0.26 nM,0.000581 s⁻¹,2.24e+06 M⁻¹ s⁻¹,B28
2.78 nM,0.00181 s⁻¹,650000 M⁻¹ s⁻¹,B29
1.17 nM,–,–,B30
0.278 nM,0.000662 s⁻¹,2.38e+06 M⁻¹ s⁻¹,B31
0.214 nM,0.000475 s⁻¹,2.22e+06 M⁻¹ s⁻¹,B32
2.32 nM,0.00155 s⁻¹,668000 M⁻¹ s⁻¹,B33

# — patent publication US20240092922A1 (EUCURE BEIJING BIOPHARMA, published 2024)
